B1: 108VH10.Mg / 108VL10.Me (antibody, V domains shown)
VH: EVQLVESGGGLVQPGGSLRLSCAASGFTFSHHWIHWVRQAPGKGLEWVAMIDASDSETRLSQKFKDRFTISADTSKNTAYLQMNSLRAEDTAVYYCSRLGRYYFDYWGQGTLVTVSS
VL: DIQMTQSPSSLSASVGDRVTITCRASQSISSYLNWYQQKPGKAPKLLIYGASSRYSGVPSRFSGSRSGTDFTLTISSLQPEDFATYYCGESYGHLYTFGQGTKVEIK
notes: 4D5-framework series; constant regions not restated for this series; also called VH10.Mg VL10.Me
B2: 108VH10.Mi / 108VL10.Me (antibody, V domains shown)
VH: B1 VH with Q62D
VL: B1 VL
notes: 4D5-framework series; constant regions not restated for this series; also called VH10.Mi VL10.Me
B3: 108VH10.Ml / 108VL10.Me (antibody, V domains shown)
VH: B1 VH with D66G
VL: B1 VL
notes: 4D5-framework series; constant regions not restated for this series; also called VH10.Ml VL10.Me
B4: 108VH10.Mj / 108VL10.Me (antibody, V domains shown)
VH: B1 VH with K63S
VL: B1 VL
notes: 4D5-framework series; constant regions not restated for this series; also called VH10.Mj VL10.Me
B5: 108VH10.Mh / 108VL10.Me (antibody, V domains shown)
VH: B1 VH with S61V
VL: B1 VL
notes: 4D5-framework series; constant regions not restated for this series; also called VH10.Mh VL10.Me
B6: 108VH5.M24 / 108VL1.M5 (antibody, human IgG4 S228P, kappa, V domains shown)
VH: EVQLVQSGAEVKKPGASVKVSCKASGYTFTHHWMHWVRQAPGQGLEWMGMIDASDLETRYAQKFQGRVTMTRDTSTSTVYMELSSLRSEDTAVYYCARLGRYYFDYWGQGTLVTVSS
VL: EIVLTQSPATLSLSPGERATLSCRASQSVSSYLAWYQQKPGQAPRLLIYGASNRATGIPARFSGSGSGTDFTLTISSLEPEDFAVYYCGESYGHLYTFGGGTKVEIKR
notes: Full-length IgG4 (S228P), kappa; also called VH5.M24 VL1.M5
B7: 108VH5.M25 / 108VL1.M5 (antibody, human IgG4 S228P, kappa, V domains shown)
VH: B6 VH with L56R
VL: B6 VL
notes: Full-length IgG4 (S228P), kappa; also called VH5.M25 VL1.M5
B8: 108VH5.M26 / 108VL1.M5 (antibody, human IgG4 S228P, kappa, V domains shown)
VH: B6 VH with L56V
VL: B6 VL
notes: Full-length IgG4 (S228P), kappa; also called VH5.M26 VL1.M5
B9: 108VH5.M20 / 108VL1.M5 (antibody, human IgG4 S228P, kappa, V domains shown)
VH: B6 VH with L56A
VL: B6 VL
notes: Full-length IgG4 (S228P), kappa; also called VH5.M20 VL1.M5
B10: 108VH10.Mb / 108VL10.M1 (antibody, V domains shown)
VH: B1 VH with F27Y, T28S, S30T, I34M, A53P
VL: B1 VL with Q27E, S28N, I29V, S30G, S31T, L33I, N34S, S53N, S56T
notes: 4D5-framework series; constant regions not restated for this series; also called VH10.Mb VL10.M1
B11: 108VH10.Md / 108VL10.M1 (antibody, V domains shown)
VH: B1 VH with F27Y, T28S, S30T, D52K, A53P
VL: B1 VL with Q27E, S28N, I29V, S30G, S31T, L33I, N34S, S53N, S56T
notes: 4D5-framework series; constant regions not restated for this series; Asp52 replaced with Lys; also called VH10.Md VL10.M1
B12: 108VH10 / 108VL10.Ma (antibody, V domains shown)
VH: B1 VH with F27Y, T28S, S30T, A53P
VL: B1 VL with S53N, S56T
notes: 4D5-framework series; constant regions not restated for this series; also called VH10 VL10.Ma
B13: 108VH10 / 108VL10.Mc (antibody, V domains shown)
VH: B1 VH with F27Y, T28S, S30T, A53P
VL: B1 VL with Q27E, S28N, I29V, S30G, S31T, L33I, N34S, S56T
notes: 4D5-framework series; constant regions not restated for this series; also called VH10 VL10.Mc
B14: 108VH10 / 108VL10.Md (antibody, V domains shown)
VH: B1 VH with F27Y, T28S, S30T, A53P
VL: B1 VL with Q27E, S28N, I29V, S30G, S31T, L33I, N34S, S53N
notes: 4D5-framework series; constant regions not restated for this series; also called VH10 VL10.Md
B15: 108VH10.Ma / 108VL10.M1 (antibody, V domains shown)
VH: B1 VH with A53P
VL: B1 VL with Q27E, S28N, I29V, S30G, S31T, L33I, N34S, S53N, S56T
notes: 4D5-framework series; constant regions not restated for this series; also called VH10.Ma VL10.M1
B16: 108VH10.Me / 108VL10.M1 (antibody, V domains shown)
VH: B1 VH with F27Y, T28S, S30T, A53Q
VL: B1 VL with Q27E, S28N, I29V, S30G, S31T, L33I, N34S, S53N, S56T
notes: 4D5-framework series; constant regions not restated for this series; Pro53 replaced with Gln; also called VH10.Me VL10.M1
B17: 108VH5.M5 / 108VL1.M5 (antibody, human IgG4 S228P, kappa, V domains shown)
VH: B6 VH with M34I, L56S, Y60L, A61S, Q65K, G66D
VL: B6 VL
notes: Full-length IgG4 (S228P), kappa; also called VH5.M5 VL1.M5
B18: 108VH5.M9 / 108VL1.M5 (antibody, human IgG4 S228P, kappa, V domains shown)
VH: B6 VH with T28S, M34I, L56S, Y60L, A61S
VL: B6 VL
notes: Full-length IgG4 (S228P), kappa; also called VH5.M9 VL1.M5
B19: 108VH5.M8 / 108VL1.M5 (antibody, human IgG4 S228P, kappa, V domains shown)
VH: B6 VH with T28S, M34I, L56S, Q65K, G66D
VL: B6 VL
notes: Full-length IgG4 (S228P), kappa; also called VH5.M8 VL1.M5

Residue numbers refer to the chain shown, from its start. Names may count otherwise.

This is an account of results in patent US20260132197A1 (NANJING LEGEND BIOTECH, published 2026).

The target in one experiment is T1, Human CD47-C33G (human, UniProt Q08722 19-135).
T1 construct: also called CD47 mutein with C33G mutation
In words: SPR, IgG captured, CD47 in flow; exp 3.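 Also: other target is a CD47 mutein carrying C33G, used to obtain true monovalent affinity, with kon and koff fitted from SPR binding curves and KD derived from both rates.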
The Kd is the equilibrium constant for the complex coming apart. Low readings indicate a tighter complex, high ones a looser complex. What is called koff is a measure of how fast the partners let go of each other. The low end stands for slow dissociation, the high end for fast dissociation. The term kon denotes the second-order rate constant of association. As to B1, binding was put at a Kd of 31 nM, the dissociation rate constant (koff) came to 0.0072 s⁻¹ and the kon worked out at 230000 M⁻¹ s⁻¹.
B2 registered a Kd of 38 nM, a koff of 0.0087 s⁻¹ and an on-rate (kon) of 230000 M⁻¹ s⁻¹.
The molecule B3 displayed a Kd of 36 nM, a koff of 0.0073 s⁻¹ and a kon of 200000 M⁻¹ s⁻¹.
As to B4, the Kd came out at 38 nM, the koff was 0.0078 s⁻¹ and the kon worked out at 210000 M⁻¹ s⁻¹.
The corresponding values for B5 are 160 nM, 0.013 s⁻¹ and 79000 M⁻¹ s⁻¹.

The next experiment deals with T2, wild type human CD47 (Acro Biosystems, cat. no. CD7-H5227) (human, UniProt Q08722 19-139).
T2 construct: Bought protein used as SPR analyte; also called Human CD47 wt; wild-type CD47
Put plainly: SPR, IgG captured, CD47 in flow; exp 3.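 Also: other target is a CD47 mutein carrying C33G, used to obtain true monovalent affinity, with kon and koff fitted from SPR binding curves and KD derived from both rates.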 On the technique in general: Surface plasmon resonance follows binding to a sensor surface in real time, without labels.
The molecule B1 showed a Kd of 4.8 nM, a koff of 0.0032 s⁻¹ and a kon of 680000 M⁻¹ s⁻¹.
The corresponding values for B2 are 5.2 nM, 0.0034 s⁻¹ and 640000 M⁻¹ s⁻¹.
In the case of B3, the affinity, expressed as Kd, was 5.6 nM; the koff was 0.0034 s⁻¹; the kon was found to be 610000 M⁻¹ s⁻¹.
Consider B4, for which the Kd turned out to be 5.8 nM, the koff was 0.0035 s⁻¹ and the kon came out at 610000 M⁻¹ s⁻¹.
On to B5, for which the Kd turned out to be 17 nM, the koff stood at 0.0066 s⁻¹ and the kon was 380000 M⁻¹ s⁻¹.

A further experiment concerns the target T1, Human CD47-C33G. In words: SPR, IgG captured, CD47 in flow; exp 4.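 Also: biacore T200 SPR using IgG from transfected HEK293 supernatants against wild-type human CD47 or its C33G mutein, rates fitted to association and dissociation curves, KD estimated from them.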
With B6, binding was characterised by a dissociation constant (Kd) of 31 nM, the koff was 0.0067 s⁻¹ and the kon is 220000 M⁻¹ s⁻¹.
As for B7, binding was put at a Kd of 33 nM, the koff amounted to 0.0063 s⁻¹ and the kon was found to be 190000 M⁻¹ s⁻¹.
With B8, the Kd is 23 nM, the koff stood at 0.0054 s⁻¹ and the kon is 240000 M⁻¹ s⁻¹.
Molecule B9 registered an equilibrium dissociation constant (Kd) of 15 nM, a koff of 0.0045 s⁻¹ and an on-rate (kon) of 310000 M⁻¹ s⁻¹.

The target in a further experiment is T2, wild type human CD47 (Acro Biosystems, …). Put plainly: SPR, IgG captured, CD47 in flow; exp 4.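 Also: biacore T200 SPR using IgG from transfected HEK293 supernatants against wild-type human CD47 or its C33G mutein, rates fitted to association and dissociation curves, KD estimated from them.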
In turn, B6 registered a Kd of 5.7 nM, a koff of 0.003 s⁻¹ and a kon of 520000 M⁻¹ s⁻¹.
On to B7, for which the Kd was 6.2 nM, the koff is 0.0028 s⁻¹ and the kon was 450000 M⁻¹ s⁻¹.
On the same counts, the results for B8 are 4.6 nM, 0.0026 s⁻¹ and 570000 M⁻¹ s⁻¹.
The corresponding values for B9 are 3 nM, 0.0022 s⁻¹ and 710000 M⁻¹ s⁻¹.

In the next experiment the target is T1, Human CD47-C33G. In words: SPR, IgG captured, CD47 in flow; exp 2.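 Also: rates derived from association and dissociation curves, KD estimated from them, C33G mutein used to avoid CD47 IgV homodimers for true monovalent affinity.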
Molecule B10 returned a Kd of 39 nM, a koff of 0.0035 s⁻¹ and a kon of 89000 M⁻¹ s⁻¹.
As to B11, the binding result was “no binding (tested: 2.5 nM to 1.28 µM of antigen tested)”.
With B12, the dissociation constant Kd turned out to be 8 nM, the koff worked out at 0.0029 s⁻¹ and the on-rate (kon) was found to be 360000 M⁻¹ s⁻¹.
The corresponding values for B13 are 64 nM, 0.0044 s⁻¹ and 69000 M⁻¹ s⁻¹.
The molecule B14 displayed a Kd of 42 nM, a koff of 0.0036 s⁻¹ and a kon of 86000 M⁻¹ s⁻¹.
For B15, binding was put at a Kd of 57 nM, the koff is 0.0046 s⁻¹ and the kon amounted to 82000 M⁻¹ s⁻¹.

Another experiment has as its target T2, wild type human CD47 (Acro Biosystems, …). Put plainly: SPR, IgG captured, CD47 in flow; exp 2.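 Also: rates derived from association and dissociation curves, KD estimated from them, C33G mutein used to avoid CD47 IgV homodimers for true monovalent affinity.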
In turn, B16 registered a Kd of 53 nM, a dissociation rate constant (koff) of 0.0027 s⁻¹ and a kon of 52000 M⁻¹ s⁻¹.
In the case of B10, the affinity, expressed as Kd, was 6.5 nM; the dissociation rate constant (koff) came out at 0.0016 s⁻¹; the association rate constant (kon) is 240000 M⁻¹ s⁻¹.
B12 registered a Kd of 1.4 nM, a koff of 0.0015 s⁻¹ and a kon of 1e+06 M⁻¹ s⁻¹.
B13 registered a Kd of 10 nM, a koff of 0.002 s⁻¹ and a kon of 190000 M⁻¹ s⁻¹.
The corresponding values for B14 are 7.1 nM, 0.0016 s⁻¹ and 230000 M⁻¹ s⁻¹.
Consider B15, for which the affinity, expressed as Kd, was 8.7 nM; the koff worked out at 0.002 s⁻¹; the kon amounted to 230000 M⁻¹ s⁻¹.

A further experiment has as its target T3, human CD47 on cells (SHP-77 tumor cells, human red blood cells, CCRF-CEM cells, human CD47 CHO-K1 stable cell … (human, UniProt Q08722 19-323)).
T3 construct: whole, on cells; also called RBC
In words: flow cytometry on SHP-77 cells.
The term EC50 denotes the concentration needed to bring the measured effect to its halfway point. A high value points to weaker potency. B6: the EC50 is 9.8 nM and the “Fitted Maximal MFI” value amounted to 38700 MFI.
As to B7, the EC50 was 7.1 nM and the “Fitted Maximal MFI” value was 39600 MFI.

In the next experiment the target is T1, Human CD47-C33G. In words: SPR, IgG captured, CD47 in flow; exp 1.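 Also: biacore T200 SPR using IgG from supernatants of transfected HEK293 cells, rate constants fitted to association and dissociation curves, Kd derived from koff over kon.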
The molecule B17 returned a Kd of 6.2 nM, a koff of 0.0021 s⁻¹ and a kon of 330000 M⁻¹ s⁻¹.
Turning to B18, binding was characterised by a dissociation constant (Kd) of 8.5 nM, the koff was 0.0028 s⁻¹ and the kon came out at 330000 M⁻¹ s⁻¹.
As for B19, the Kd was found to be 15 nM, the koff was determined as 0.0044 s⁻¹ and the kon is 300000 M⁻¹ s⁻¹.

For the next experiment, the target named is T2, wild type human CD47 (Acro Biosystems, …). Put plainly: SPR, IgG captured, CD47 in flow; exp 1.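 Also: biacore T200 SPR using IgG from supernatants of transfected HEK293 cells, rate constants fitted to association and dissociation curves, Kd derived from koff over kon.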
Turning to B17, the Kd is 1.3 nM, the dissociation rate constant (koff) was found to be 0.00096 s⁻¹ and the kon is 720000 M⁻¹ s⁻¹.
The corresponding values for B18 are 1.9 nM, 0.0014 s⁻¹ and 760000 M⁻¹ s⁻¹.
B19: binding was put at a Kd of 3 nM, the koff came to 0.0022 s⁻¹ and the kon is 720000 M⁻¹ s⁻¹.

For the next experiment, the target named is T3, human CD47 on cells (SHP-77 tumor …). In words: flow cytometry on human RBCs.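 Also: antibody binding measured by flow cytometry as geometric mean fluorescence intensity over a range of antibody concentrations, with EC50 and maximum taken from a sigmoidal dose-response fit.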 In general terms: A flow cytometer gives signals particle by particle.
Regarding B6, the midpoint of the response, the EC50, lay at 4 nM and the “Fitted Maximal MFI” value amounted to 29200 MFI.
With B7, the EC50 was 4 nM and the “Fitted Maximal MFI” value worked out at 35500 MFI.
